This is an account of results in publication PMC9214829.

This assay concerns the target proteasome regulatory particle (S. cerevisiae) (UniProt P33299). Nature of the assay: co-IP.
Sequence of UniProt P33299 (P33299 whole entry, looked up): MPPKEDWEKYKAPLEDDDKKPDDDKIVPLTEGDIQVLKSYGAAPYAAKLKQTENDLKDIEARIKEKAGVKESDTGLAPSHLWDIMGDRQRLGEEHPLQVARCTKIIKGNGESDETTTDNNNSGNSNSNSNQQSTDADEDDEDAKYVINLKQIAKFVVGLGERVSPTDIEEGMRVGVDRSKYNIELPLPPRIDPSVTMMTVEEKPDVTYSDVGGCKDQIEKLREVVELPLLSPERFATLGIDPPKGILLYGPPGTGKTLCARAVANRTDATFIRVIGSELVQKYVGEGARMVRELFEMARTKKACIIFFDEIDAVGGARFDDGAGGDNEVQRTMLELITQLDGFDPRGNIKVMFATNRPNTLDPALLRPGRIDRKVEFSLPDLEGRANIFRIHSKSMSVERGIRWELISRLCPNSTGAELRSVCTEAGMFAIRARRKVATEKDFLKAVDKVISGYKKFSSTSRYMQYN

Substance “Rpn14 (from UniProt P53196 1-417) (natural protein)” came in with a relative % of RP-bound chaperone in wild type (not4Δ set as 100%) of 20%.
